Data taken from US20240035012A1.

Key:
[1] = target: prefusion stabilized trimeric SARS-CoV-2 spike protein ectodomain (SARS-CoV-2) (UniProt P0DTC2)
[2] = target: prefusion stabilized trimeric SARS-CoV-2 spike protein ectodomain (SARS-CoV-2) (UniProt P0DTC2); remark: listed apart in the source

ACE2-short-3HB (receptor)
IC50 [1]: 2.9 nM
Kd [2]: 3.9 nM
